Reference: the supplement of paper PMC9170038

How the values were obtained:
MS2 coat protein [1] = experiment: apparent KD of MS2 coat protein, switch OFF state (with FMN for OFF switches, without FMN for ON switches); designed switch direction (-1 OFF switch, 1 ON switch): -1; higher = weaker reporter binding; settings: FMN input: 0 or 200 uM; Eterna round: R93 (includes R88 designs)
In short: (§1)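 With or without constant ligand, designed RNA switches in 100 mM Tris-HCl pH 7.5, 80 mM KCl and 4 mM MgCl2 were titrated with SNAP-549-labelled MS2 coat protein. Concentrations went up in twofold steps from 0.7 or 1.5 nM to 3 µM. The switches had been transcribed on-chip from Illumina sequencing clusters, and apparent KD is the per-design median of normalised cluster binding-curve fits.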

MS2 coat protein [2] = experiment: apparent KD of MS2 coat protein, switch ON state; designed switch direction (-1 OFF switch, 1 ON switch): -1; higher = weaker reporter binding; settings: FMN input: 0 or 200 uM; Eterna round: R93 (includes R88 designs)
In short: as §1

Row | Sequence | apparent KD of MS2 coat protein (MS2 coat protein [1]) [nM] | apparent KD of MS2 coat protein (MS2 coat protein [2]) [nM]
1 | AACUGACAUGAGGAUCACCCAUGUCAGGAUAUGAUUUGACGAAAAAAAAUAAGUCAUAUCAGAAGGGACAUGGA [Design 84: Sub-opt WB] | 45 | 26
2 | UAAAAACAUGAGGAUCACCCAUGUCAGGAUAUGUGCUCAGUGAAAAACUGAGUAACAAGCAGAAGGGACAAUAA [JR_Exc001_Sub202] | 31.4 | 23.6
3 | AAGAGUAGAGGAUAUACAUGAGGAUCACCCAUGUAAUCCGGAUAAGGAAGCAUGUCGUGUAGAAGGCUGCAUGA [MOD 3 of Nando (MS2 Riboswitches- Exclusion 3)] | 14.1 | 15.5
4 | AACUGACAUGAGGAUCACCCAUGUCAGGAUAUGCAUCUUAGGAAAAAAAAACUAAGAUGCAGAAGGGACAUGGG [Design 3: Super Stable 3] | 15.8 | 16.8
5 | AAAAAACAUGAGGAUCACCCAUGUGAGGAUAUGCUAAAAAAAUCCGCAUGAAAAAAUAGCAGAAGGCACAUAAA [PK2] | 52.5 | 29.6
6 | AAGGGACAUGAGGAUCACCCAUGUCAGGAUAUGAUGCGAAUAAAGAAAGAAGAAAGCAUCAGAAGGGACGCCUA [58%, Disencluded 3, 6] | 27.6 | 19.3
7 | AAGAAACAUGAGGAUCACCCAUGUCAGGAUAUUGAAAAGAAAAGAAAAGAAAGAAGAACAAGAAGGGACAAAGG [Neferkare (III) Neby] | 40.3 | 37.1
8 | AAAAAUGGAGGAUAUACAUGAGGAUCACCCAUGUGAAACAAAAAAAAAAACAAAAAAAGUAGAAGGCCAAAAAA [Gilly Gone Silly 2 - Jieux - Exclusion 3] | 53.6 | 36.7
9 | AAGAAUGAAGGAUAUACAUGAGGAUCACCCAUGUAAGAGAAAGAGGGAAAAGAGAAAAGUAGAAGGUCAAAGAA [Ruby 72] | 33.7 | 22
10 | AGCUGGUCAGGAUAUGCGUGAAGAAUAAAACAAAUAACAACGCAGAAGGGACAUGAGGAUCACCCAUGUCAGCA [May 50] | 20.3 | 23.9
11 | UAUACGUGAGGAUAUGCGAAUAACACGUUAGACAAAUAGACGCAGAAGGCACAUGAGGAUCACCCAUGUGAACC [JR_Exc004_Sub316] | 17 | 18.1
12 | AGAAACUGAGGAUAUACUUUGGGAAAAGAAAAGAUGAUGUUACAUGAGGAUCACCCAUGUAGAAGGCAGAAAGA [Mat - Exclusion 2 - Mod - D152] | 30.3 | 25.5
13 | AAAAAACAUGAGGAUCACCCAUGUAAGGAUAUGCUAAAAAAAAAAAAAAAAAAAAAAUGCAGAAGGUACAAAAA [water's exclusion 1 again] | 40.2 | 40.4
14 | AGUCAUACAGGAUAUACAUGAGGAUCACCCAUGUAAAUCCUAAAAAAGUGAUCCUCAUGUAGAAGGGUAUGACA [EX3 220: Super Stable 20] | 19.7 | 19.1
15 | AAAAAGGGAGGAUAUACAUGAGGAUCACCCAUGUAUCAGACGAAAAAGAGUCUGAAAUGUAGAAGGCCCAAAAA [65%, Moding Exclusion3-cac2, 2] | 35.8 | 20.7
16 | AACAGGACAGGAUAUACAUGAGGAUCACCCAUGUGAAGAUUAAGAAGAAACCCACAAAGUAGAAGGGUCCUGGA [Ruby 93] | 51 | 25
17 | AGAAAGUCAGGAUAUACGAAAAAGAAAAAAGACGAGAACGGACAUGAGGAUCACCCAUGUAGAAGGGACAAGAA [Diamond 14] | 51.4 | 66.4
18 | AAAAUGUCAGGAUAUUCGGAUAGGAAAACGAAAACCUAUCCGAAGAAGGGACAUGAGGAUCACCCAUGUAAAAA [Starry Exclusion 4.2 (cataway round 1 mod)] | 341 | 81.4
19 | AAGAGGUCAGGAUAUGCCCACCAGGAAAAACGUCCAGGUGGGCAGAAGGGACAUGAGGAUCACCCAUGUAAAGA [Opal 41] | 114 | 44.8
20 | AAAAAGUGAGGAUAUACGCUGAGGAGUAGACACAACCUGGCGUAGAAGGCACAUGAGGAUCACCCAUGUCCAAA [EX4 Malc#12] | 41.5 | 24.3
21 | AUAAUACAUGAGGAUCACCCAUGUCAGGAUAUGCUAAAAUUAAAAUUAAAUCAAAAAUGUAGAAGGGACUAAAU [Exclusion Z3] | 42.9 | 49.8
22 | AAACUACUAGGAUAUACAACGGUGUCCUAACUACUAAGAAAACAUGAGGAUCACCCAUGUAGAAGGAGUAGUGA [Lauslabe] | 30.2 | 33.6
23 | AAGAACAGAGGAUAUGCUAAAGAAAUAAAAAUAAAUAAAGAACAUGAGGAUCACCCAUGUAGAAGGCUGAAGAA [Seven kings] | 28 | 28.3

Row | Sequence | apparent KD of MS2 coat protein (MS2 coat protein [1]) [nM] | apparent KD of MS2 coat protein (MS2 coat protein [2]) [nM]
24 | AAGAAGGUAGGAUAUACUAGGGCAACUAAUGCAAAGAUAGAACAUGAGGAUCACCCAUGUAGAAGGGCCAGAAA [JR_Exc002_Sub402] | 40.5 | 35.7
25 | GAAAAACAUGAGGAUCACCCAUGUCAGGAUAUCGAAAAAAAUAAAAAAGAAAAGAAAACGAGAAGGGACAAAAA [May 12] | 45.6 | 28.2
26 | CCUAUGUCAGGAUAUCAGUAGUAAAAAAAAAAAAUUACUACUGAGAAGGGACAUGAGGAUCACCCAUGUCCAAA [EX4 312: Super Stable 12] | 18.4 | 25.6
27 | ACAAAUGUAGGAUAUACAUGAGGAUCACCCAUGUGGCAGAAACAGCAAACAAGACGAAGUAGAAGGACAACGAC [JR_Exc003-Sub902] | 28.6 | 29.1
28 | AAAAAACAUGAGGAUCACCCAUGUAAGGAUAUGCUCGUGCGAAAAAGCACAAAAAAGAGCAGAAGGUACAAAAA [66%, Wbt, 40] | 34.4 | 18.8
29 | AAAAAACAUGAGGAUCACCCAUGUGAGGAUAUACGAAAGUAGAAGGCACUAAAAAAAAAAAGAAGGAAAAAAAA [Meechl Ex1 R2 m0] | 42.4 | 24.2
30 | GCAAAGUGAGGAUAUACGCGAACAAUAAAAAUAAAGAAAGCGUAGAAGGCACAUGAGGAUCACCCAUGUCCAGC [Mat - Exaclusion 4 - Eli mod - D78] | 25.9 | 23.5
31 | AAAAAACAUGAGGAUCACCCAUGUAAGGAUAUGCUGAAAAAACACUGGAAACAGUGCAGCAGAAGGUACAAAAA [66%, Wbt, 35] | 27.2 | 21.5
32 | AACAGUACAGGAUAUACAUGAGGAUCACCCAUGUGAAAAUUAAGUGGGAAACCACAAAGUAGAAGGGUACUGAA [Mat - Exclusion 3 - Eli mod - D59] | 114 | 22
33 | AAACGUAGAGGAUAUACAGGGCUAUUACGAAAGUAAUAGAAACAUGAGGAUCACCCAUGUAGAAGGCUACGAAA [Mod2 of Meechl 64% 1] | 67.9 | 162
34 | CUCUAGUGAGGAUAUGGAAGAAAAGAAGAGAAAGAAAAGAACCAGAAGGCACAUGAGGAUCACCCAUGUAAGAA [EteRNA is fun!] | 46.3 | 38.9
35 | AAAUAGUUAGGAUAUACAUGAGGAUCACCCAUGUGGACUGAUGUCGCGUGAUUCAGUGGUAGAAGGGACUCAAA [EX2 Malc#36] | 75 | 47.3
36 | AAAAAACAUGAGGAUCACCCAUGUAAGGAUAUCGGAAAAGGAAAAAAAAAAAAGAAGACGAGAAGGUACACCAA | 31.5 | 25.9
37 | AAGAAGUGAGGAUAUACGCGAACAAAAAAAAAAAAGAAAGCGUAGAAGGCACAUGAGGAUCACCCAUGUCCAAA | 34.9 | 27.7
38 | AAGAAGUGAGGAUAUAGUUGCACUAGCUAAUGCUAGUGCAACUAGAAGGCACAUGAGGAUCACCCAUGUAAAAG [Meechl Ex4 2] | 46.7 | 40.6
39 | GAAGAACAUGAGGAUCACCCAUGUCAGGAUAUGCAGAAGGGAAUAAUAACUUCUGGAAGCAGAAGGGACAAGAA [Ex 1 May 47] | 30.5 | 29.6
40 | GGUUGGCGAGGAUAUACAUGAGGAUCACCCAUGUGAGAGAAAUAAGUGAGAAAGAAAAGUAGAAGGCGCUGACG [salish99-ex3-43] | 1700 | 87.7
41 | AAAAAACAUGAGGAUCACCCAUGUGAGGAUAUGAUGAAAGAUUGAAAAAGGUUGAAAGUCAGAAGGUAUGUGAA [Exclusion 1.3] | 35.7 | 30.4
42 | AACUGACAUGAGGAUCACCCAUGUCAGGAUAUGCUUCAUAAAAAAAAAAAAAAAUGAUGCAGAAGGGAUAUGGA [Design 36 :P Sub-opt 12] | 13.6 | 21.5
43 | AGUUGGCGAGGAUAUACAUGAGGAUCACCCAUGUAAAAUAAAUAAAAAAGGGAAGAAAGUAGAAGGCGCUGACA [73%, Moding Norbert Elias, 11] | 175 | 40.5
44 | AACAGUACAGGAUAUACAUGAGGAUCACCCAUGUAAAGGGAAUAAAACAAAAAUAAAUGUAGAAGGGUACUGGA [Moding Maslow revisited (73) 21] | 129 | 69.3
45 | GAAGUGUUAGGAUAUCGAUGAAUAAUAAAACAAAGGAACAUUGAGAAGGAACAUGAGGAUCACCCAUGUAAAAC [May 82] | 25.6 | 33.4
